The target in experiment [1] is c-Met recombinant chimera (R&D Systems) (UniProt P08581). The experiment can be described thus: SPR; c-Met chimera amine-coupled to a CM5 chip (200-1000 RU), Biacore 2000, 25 °C, HBS-EP pH 7.4, 5 uL/min; CSF diluted 1:1 in PBS flowed over; samples: septic nosocomial meningitis (n = 33). In general terms: SPR reads the build-up and loss of mass on a sensor chip optically.

Experiment [2] shares this target. The experiment can be described thus: SPR; c-Met chimera amine-coupled to a CM5 chip (200-1000 RU), Biacore 2000, 25 °C, HBS-EP pH 7.4, 5 uL/min; CSF diluted 1:1 in PBS flowed over; samples: septic community-acquired meningitis (n = 22).

Chain of UniProt P08581 (P08581 25-932, change not shown): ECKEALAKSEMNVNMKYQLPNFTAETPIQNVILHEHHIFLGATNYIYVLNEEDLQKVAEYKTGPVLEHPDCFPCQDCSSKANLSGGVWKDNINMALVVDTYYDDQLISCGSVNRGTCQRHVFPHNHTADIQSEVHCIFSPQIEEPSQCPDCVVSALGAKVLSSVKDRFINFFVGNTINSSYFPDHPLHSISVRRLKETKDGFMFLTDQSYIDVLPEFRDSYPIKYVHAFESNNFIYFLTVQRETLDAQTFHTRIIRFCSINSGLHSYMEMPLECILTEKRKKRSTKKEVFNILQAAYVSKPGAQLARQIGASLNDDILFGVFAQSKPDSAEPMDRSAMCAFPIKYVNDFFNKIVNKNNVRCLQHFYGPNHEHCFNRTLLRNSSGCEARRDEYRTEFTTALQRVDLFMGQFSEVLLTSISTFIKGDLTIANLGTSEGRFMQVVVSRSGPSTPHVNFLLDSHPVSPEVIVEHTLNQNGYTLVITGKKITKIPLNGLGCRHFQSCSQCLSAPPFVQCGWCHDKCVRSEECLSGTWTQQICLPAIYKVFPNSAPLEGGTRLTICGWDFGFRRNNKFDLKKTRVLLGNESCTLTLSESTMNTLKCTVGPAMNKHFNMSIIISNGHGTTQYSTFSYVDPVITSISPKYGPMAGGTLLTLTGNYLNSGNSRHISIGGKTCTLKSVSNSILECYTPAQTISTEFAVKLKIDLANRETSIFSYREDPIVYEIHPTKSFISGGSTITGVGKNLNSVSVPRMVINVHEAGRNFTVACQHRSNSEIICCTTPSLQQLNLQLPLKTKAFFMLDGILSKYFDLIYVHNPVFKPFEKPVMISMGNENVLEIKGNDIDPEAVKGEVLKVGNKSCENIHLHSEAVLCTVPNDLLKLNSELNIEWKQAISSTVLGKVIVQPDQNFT

As to “Hepatocyte growth factor (CSF-derived) (ligand)”, the C-Met binding (RU), median of the group amounted to 27.3 RU in experiment [1] and 56 RU in experiment [2].

The record behind these values is publication PMC4582940.
